Results as given in US20230137562A1, “TAU AGGREGATION INHIBITORS” (priority 2017, published 2023).
Values joined by “and” are separate entries in the source; they are usually repeats but may differ in a detail not shown here. Identical values can stand only once. Square brackets hold non-standard residues; d marks the D form. Ends that are not written are not given here. Peptide text beside a SMILES is read from it. NMeR = CN[C@@H](CCCNC(=N)N)C(=O)O; hArg = N=C(N)NCCCC[C@H](N)C(=O)O; Orn = NCCC[C@H](N)C(=O)O

Molecular target: T1, Ac-VQIINK-NH2
T1 peptide: Ac-VQIINK-NH2
Assay: cell-based or functional assay

Row | Molecule | IC50 (µM), VQIINK Inhibition (ThT)
1 | WRIRIRL | 7.38 µM
2 | WY[hArg]L[hArg]I[hArg]W [WY(hR)L(hR)I(hR)W] | 2.95 µM
3 | WRIQIRW | 2.17 µM
4 | RIWIRLW | 2.31 µM
5 | WRIWLRYW | 2.32 µM
6 | WLKVQVRLW | 1.71 µM
7 | WRIWIRRW | 3.85 µM
8 | FRIRIRW | 4.04 µM
9 | WRIRLYWW | 2.35 µM
10 | HRIWIRYW | 4.3 µM
11 | WKIKLKYW | 2.82 µM
12 | LRIRIRW | 4.31 µM
13 | WYRIWVRYW | 2.22 µM
14 | WWIRIRYWL | 4.88 µM
15 | WYRIRLRYW | 2.98 µM
16 | WWIRIRYW | 1.92 µM
17 | WY[Orn]IWI[Orn]W [WYOIWIOW] | 2.45 µM
18 | WKVWVRYW | 4.93 µM

Row | Molecule | IC50 (µM), VQIINK Inhibition (ThT)
19 | WRLRIHW | 3.2 µM
20 | WRIFIRW | 9.13 µM
21 | WAIRIRW | 1.94 µM
22 | RRIWIRYW | 5.61 µM
23 | WRLKVRWW | 3.34 µM
24 | RWRIWIW | 3.44 µM
25 | RIWLRLW | 2.01 µM
26 | WWIRIRYWR | 1.79 µM
27 | WRIRIRYW | 2.44 µM and 3.77 µM
28 | WRITIRW | 2.64 µM
29 | LRIRIRL | 17.8 µM
30 | WRIRLWYW | 1.98 µM
31 | WRI[NMeR]IRW [WRI(NMe)RIRW] | 3.84 µM
32 | WRIRLWYR | 1.7 µM
33 | RYRIWIW | 5.74 µM
34 | RIRIFIF | 2.87 µM
35 | WWIRLRYW | 3.24 µM
36 | RLRIWIW | 2.04 µM

molecular target: His-Tau40P301L Tau (UniProt P10636-8 1-441); assay: cell-based or functional assay
Sequence (P10636 other isoform, or with tags, fused parts or gaps limits assumed): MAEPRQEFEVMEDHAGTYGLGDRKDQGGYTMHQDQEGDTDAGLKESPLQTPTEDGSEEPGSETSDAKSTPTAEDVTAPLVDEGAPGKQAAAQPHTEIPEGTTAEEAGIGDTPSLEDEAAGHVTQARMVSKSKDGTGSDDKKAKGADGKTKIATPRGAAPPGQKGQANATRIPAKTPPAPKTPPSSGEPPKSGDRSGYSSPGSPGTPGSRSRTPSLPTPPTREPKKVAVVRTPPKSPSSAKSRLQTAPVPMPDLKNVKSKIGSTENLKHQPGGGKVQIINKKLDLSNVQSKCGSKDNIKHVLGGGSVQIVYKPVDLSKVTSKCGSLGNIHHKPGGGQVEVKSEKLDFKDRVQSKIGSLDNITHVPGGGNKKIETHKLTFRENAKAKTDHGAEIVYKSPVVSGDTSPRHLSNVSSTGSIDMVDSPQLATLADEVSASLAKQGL

Row | Molecule | IC50 (µM), Tau40 assay (ThT)
37 | WRIRIRL | 1.52 µM
38 | WY[hArg]L[hArg]I[hArg]W [WY(hR)L(hR)I(hR)W] | 1.74 µM
39 | WRIQIRW | 1.7 µM and 2.34 µM
40 | RIWIRLW | 2.06 µM
41 | WRIWLRYW | 2.05 µM
42 | WLKVQVRLW | 1.86 µM
43 | WRIWIRRW | 1.68 µM
44 | FRIRIRW | 1.47 µM
45 | WRIRLYWW | 1.15 µM
46 | HRIWIRYW | 1.87 µM
47 | WKIKLKYW | 1.3 µM and 1.32 µM
48 | LRIRIRW | 2.07 µM
49 | WYRIWVRYW | 1.86 µM and 2.08 µM
50 | WWIRIRYWL | 1.2 µM and 1.31 µM
51 | WYRIRLRYW | 1.13 µM and 1.21 µM
52 | WWIRIRYW | 1.1 µM and 1.38 µM
53 | WY[Orn]IWI[Orn]W [WYOIWIOW] | 1.92 µM
54 | WKVWVRYW | 2.09 µM

Row | Molecule | IC50 (µM), Tau40 assay (ThT)
55 | WRLRIHW | 1.82 µM
56 | WRIFIRW | 2.01 µM
57 | WAIRIRW | 1.72 µM
58 | RRIWIRYW | 1.96 µM
59 | WRLKVRWW | 1.24 µM
60 | RWRIWIW | 0.76 µM
61 | RIWLRLW | 2.14 µM
62 | WWIRIRYWR | 1.48 µM and 1.58 µM
63 | WRIRIRYW | 1.22 µM and 1.33 µM and 1.37 µM
64 | WRITIRW | 1.99 µM
65 | LRIRIRL | 1.82 µM
66 | WRIRLWYW | 0.68 µM
67 | WRI[NMeR]IRW [WRI(NMe)RIRW] | 0.57 µM
68 | WRIRLWYR | 1.31 µM
69 | RYRIWIW | 1.61 µM
70 | RIRIFIF | 1.96 µM
71 | WWIRLRYW | 1.32 µM and 1.53 µM
72 | RLRIWIW | 1.21 µM

molecular target: T2, Ac-VQIINK-NH2 (Homo sapiens, UniProt P10636); assay: Inhibition of VQIINK aggregation with peptide inhibitors (ThT); assay type: biochemical
T2 construct: made in house; host or cells: chemical peptide synthesis
Description: The following describes the experimental method used to evaluate the IC50 of aggregation of VQIINK (SEQ ID NO:220) inhibition by the peptide inhibitors described above. The peptide sequence comprising Ac-VQIINK-NH2 (C-terminal amidated (SEQ ID NO: 220)) is prepared using the peptide synthetic method described above. The Ac-VQIINK-NH2 (SEQ ID NO: 220) is stored at 10 mM in 100% DMSO at −80° C., and an aliquot volume sufficient for a single aggregation assay plate is removed. The stock aggregation buffer (5×) is prepared with the following: 250 mM NaPhosphate (pH 8.0), 125 mM KCl, and 500 micromolar ThioflavinT (ThT). The aggregation assay is conducted with shaking, at room temperature, on a plate reader model FLX-800 by BioTek. Water for primary Ac-VQIINK-NH2 (SEQ ID NO: 220) dissolution is cooled to 4 degrees Celsius (7.245 milliliters). Buffer is added from the 5×stock (40 microliters, final volume in assay plate is 130 microliters, final buffer concentrations 50 millimolar NaPO4 (pH 8.0); 25 milllimolar KCl; and 100 micromolar ThioflavinT). The assay plate is cooled to 4 degrees Celsius. The Ac-VQIINK-NH2 (105 microliters (SEQ ID NO: 220)) is added to the chilled water (final volume of 7.350 milliliters), this is added into a pooled reservoir, and using a 96-channel robotic pipettor, 70 microliters diluted Ac-VQIINK-NH2 (SEQ ID NO: 220) is added to the assay plate to achieve a final concentration of 50 micromolar in a 200 microliter final assay volume (per well). Data is acquired using Magellan software. The calculation of IC50 is done by an automatic algorithm developed using the R statistical programing language. Briefly, the algorithm uses data exported in excel format from the plate reader to average the cumulative ThT fluorescence for each inhibitor concentration in the 6-point dose response. The IC50 is calculated as the midpoint of a sigmoid curve fitted to the correlation of normalized ThT fluorescence and inhibitor concentration.

Row | Molecule | IC50 [nM]
73 | CC[C@H](C)[C@H](NC(=O)[C@H](CCCNC(=N)N)NC(=O)[C@@H](NC(=O)[C@@H](N)CCCNC(=N)N)[C@@H](C)CC)C(=O)N[C@@H](Cc1c[nH]c2ccccc12)C(=O)N[C@@H](CC(C)C)C(=O)N[C@@H](Cc1c[nH]c2ccccc12)C(=O)O [compound 26] (H-RIRIWLW-OH) | 1930
74 | CC[C@H](C)[C@H](N)C(=O)N[C@@H](Cc1c[nH]c2ccccc12)C(=O)N[C@H](C(=O)N[C@@H](CCCNC(=N)N)C(=O)N[C@@H](Cc1ccc(O)cc1)C(=O)N[C@@H](Cc1c[nH]c2ccccc12)C(=O)O)[C@@H](C)CC [compound 180] (H-IWIRYW-OH) | 5430
75 | CC[C@H](C)[C@H](NC(=O)[C@H](Cc1c[nH]c2ccccc12)NC(=O)[C@@H](NC(=O)[C@H](CCCNC(=N)N)NC(=O)[C@@H](N)Cc1c[nH]c2ccccc12)[C@@H](C)CC)C(=O)N[C@@H](CCCNC(=N)N)C(=O)N[C@@H](CC(C)C)C(=O)N[C@@H](Cc1c[nH]c2ccccc12)C(=O)O [compound 202] (H-WRIWIRLW-OH) | 3970
76 | CC[C@H](C)[C@H](NC(=O)[C@H](CCCNC(=N)N)NC(=O)[C@@H](NC(=O)[C@H](CCCNC(=N)N)NC(=O)[C@@H](N)CC(C)C)[C@@H](C)CC)C(=O)N[C@@H](CCCNC(=N)N)C(=O)N[C@@H](Cc1c[nH]c2ccccc12)C(=O)O [compound 139] (H-LRIRIRW-OH) | 4310
77 | CC[C@H](C)[C@H](N)C(=O)N[C@@H](Cc1c[nH]c2ccccc12)C(=O)N[C@H](C(=O)N[C@@H](CCCNC(=N)N)C(=O)N[C@@H](CC(C)C)C(=O)N[C@@H](Cc1c[nH]c2ccccc12)C(=O)O)[C@@H](C)CC [compound 50] (H-IWIRLW-OH) | 2120
78 | CC[C@H](C)[C@H](NC(=O)[C@@H](N)CCCCN)C(=O)N[C@@H](CCCNC(=N)N)C(=O)N[C@@H](CC(C)C)C(=O)N[C@@H](Cc1ccc(O)cc1)C(=O)N[C@@H](Cc1c[nH]c2ccccc12)C(=O)N[C@@H](Cc1c[nH]c2ccccc12)C(=O)O [compound 194] (H-KIRLYWW-OH) | 2860
79 | CC[C@H](C)[C@H](NC(=O)[C@H](CCC(N)=O)NC(=O)[C@@H](NC(=O)[C@H](CCCNC(=N)N)NC(=O)[C@@H](N)Cc1c[nH]c2ccccc12)[C@@H](C)CC)C(=O)N[C@@H](CCCNC(=N)N)C(=O)N[C@@H](Cc1c[nH]c2ccccc12)C(=O)O [compound 69] (H-WRIQIRW-OH) | 2170
